Results taken from publication PMC10802472 (bioRxiv, 2024).
Residue numbers refer to the chain shown, from its start.

Biological target: the molecule itself
Experiment: cryo-EM structure

B1: ACAD11 K* mutant (kinase-inactive mouse ACAD11) (enzyme, UniProt Q80XL6 1-779, looked up)
chain: METDVTSDTVEVLPQHKFDLRSLEAYLNQHLPGFGSDSRAVLTVTQYRSGQSNPTFFLQKGSQAYVLRKKPPGSLLPKAHKIDREFKIQKALFSIGFPVAKPLLYCRDASVIGTEFYVMEHVQGRIFRDFSIPGVSSAERAAIYVSVAETLAWLHSLDIRSLKLDKYGTGVGYCKRQVSTWTKQYQASAHQSIPAMDQLSTWLMKNLPDSDSEECLVHGAFKLDNIVFHPKECRVIAVLDWELSTFGHPLTDLAHLSLFYYWPRTLPMINRGSHIPENTGIPLMEELISIYCHRRGIDPNLPNWNFFMALSFFKLAGISQGVYRRYLMGNNSSEDSFLTANTVQPLAETGLQLSKRTLRTTPPQADAKSQLFAQSRRGQEVLTRVKQFMKQHVFPAEKEVAEYYAQSGNSAEKWGHPLVIEKLKEMAKAEGLWNLFLPAVSGLSQVDYALIAEETGKCFFAPDVFNCQAPDTGNMEVLHLYGSEQQKKQWLEPLLRGDITSVFCMTEPNVSSSDATNIECTIQRDGGGYIVNGKKWWSSGAGNPKCKIAIVLGRTESPSASRHRQHSMILVPMDTPGVELIRPLSVFGYMDNMHGGHWEVHFNHVRVPASNLILGEGRGFEISQGRLGPGRIHHCMRTVGLAERILQIMCDRAVQREAFKKKLYEHEVVAHWIAKSRIAIEEIRLLTLKAAHSIDTLGSASARKEIAMIKVAAPKAVCKIADWAIQVHGGAGVSQDYPLANMYAIIRTLRLADGPDEVHLSAIAKMELQDQARRLTARM
stoichiometry N: 4

B2: ACAD11 A* mutant (ACAD-inactive mouse ACAD11) (enzyme, UniProt Q80XL6 1-779, looked up)
chain: B1 chain with A220D, D753N
stoichiometry N: 4
